Laboratory results: a protein production outcome set (Wang et al. 2014)

experiment: label from the status in PepcDB records
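Note: failed if final PepcDB status was selected cloned or expressed and not failed if soluble or beyond.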

Sequence | protein production
MGRNFLAILYFCFLFLGFLSCSNVKSMSLMAIGNYEYVRGNYQNAISNYYNLVEDEKYSAWGYYNLGVVYYSLGEYESSLRIFSYAKKTNDIFLNFNVNYNEGVIYYNQGLYHKAEVAFKEALKINPGSYNAKYNLELAIIKKRAVRDSLNSLSVEKGKNFVESNENFLRYIENLERVVWLRKIDENLAVPKEDW | failed
MGRTPETHVIDFRAAEQLLAARDPRGAVKLLDPVIAAHPENTAARLLRARAFFAAAQLRPAELEFTIVLEREPDNAFAHFALARTYERQLRPDQAKRHFRLAAALDPNPQYLKAARLEHHHHHH | not failed
MGRVRLQANQMEWRPGIYVGEGTTIASSAQLEPPLWIGQHCYIGEEVQLKAGTVIGDESRIEAGACLDRAVVWNRVQIGQRSHLEGCVLADGVRLERHVQIHEGAVIGSGCRLQEEAQVQAEVRIWPRKQIEAGAILEHHHHHH | failed
MGSASIGYQFGISARFYGNFNLSSDITVSSLPCKLDVSIKSLFSAPSSTHKEYSNRARVCSLPNTDGYCDEKFETPILDSIETPLQLKNLSVKELKLLADEIRTELHSVLWKKTQKSMNPSFAAIELTLALHYVFRAPVDNILWDAVEQTYAHKVLTRRWSAIPSRQNSGISGVTSRLESEYDSFGTGHGCNSISAGLGLAVARDMKGKRDRVVAVIDNVTITAGQAYEAMSNAGYLDSNMIVILNDSRHSLHPNMEEGSKASISALSSIMSKIQSSKVFRKFRELAKAMTKRIGKGMYEWAAKVDEYARGMVGPTGSTLFEELGLYYIGPVDGHNIEDLVCVLREVSSLDSMGPVLVHVITEGNRDAETVKNIMVKDRRTYSDCFVEALVMEAEKDRDIVVVHAGMEMDPSLLTFQERFPDRFFNVGMAEQHAVTFSAGLSSGGLKPFCIIPSAFLQRAYDQVVHDVDRQRKAVRFVITSAGLVGSDGPVQCGAFDIAFMSSLPNMIAMAPADEDELVNMVATAAYVTDRPVCFRFPRGSIVNMNYLVPTGLPIEIGRGRVLVEGQDVALLGYGAMVQNCLHAHSLLSKLGLNVTVADARFCKPLDIKLVRDLCQNHKFLITVEEGCVGGFGSHVAQFIALDGQLDGNIKWRPIVLPDGYIEEASPREQLALAGLTGHHIAATALSLLGRTREALLLMS | failed
MGSGPELTQTSLETLQEALQTERITYVDTLNEDIGAVVESADQLAFDYVVGDVSDYGVSSNDHVHLDLVHEGSTIHCVLFGYKRSAIDATIEDGMQVAVKGSLSYYEDGGNVSVIVEDIVEVGEGTYQRIYEQNRQLLDSDGLLDPEHKQALPDFPERIGIATSATSDARMDAITSIHERYPDVDIVIQNTSVQGDDAMMSIMGAISELDDDPRVDVIVLTRGGGSDKHLRVFNETPLCRVIHKTETPVVVGVGHENDRTLADEVADRRVMTPTEAGNIVPERTTLEAELETLEERLNTAYTETAETTLETMDDRLTRAYRRTVESDLSAFEAELDRTYDTHVRDELTDLANRLEQARTQYDQQREREQEVAAHRRQRRRLLLILVALGLLVVALLLYILLPL | failed
MGSLQPDAGNASWNGTEAPGGGARATPYSLQVTLTLVCLAGLLMLLTVFGNVLVIIAVFTSRALKAPQNLFLVSLASADILVATLVIPFSLANEVMGYWYFGKAWCEIYLALDVLFCTSSIVHLCAISLDRYWSITQAIEYNLKRTPRRIKAIIITVWVISAVISFPPLISIEKKGGGGGPQPAEPRCEINDQKWYVISSCIGSFFAPCLIMILVYVRIYQIAKRRTRVPPSRRGPDAVAAPPGGTERRPNGLGPERSAGPGGAEAEPLPTQLNGAPGEPAPAGPRDTDALDLEESSSSDHAERPPGPRRPERGPRGKGKARASQVKPGDSLPRRGPGATGIGTPAAGPGEERVGAAKASRWRGRQNREKRFTFVLAVVIGVFVVCWFPFFFTYTLTAVGCSVPRTLFKFFFWFGYCNSSLNPVIYTIFNHDFRRAFKKILCRGDRKRIV | failed
MGSPNINGNTAKLVNAILDGAAEKRAEKVIYNLASLNIKGCDACFRCQKSGCCAIDDDMQELYHEIQAADTIVLGSPVYMWQMTAQTKLLIDRLTAFLKPDFSSRLDNKKLILVFSQGSPDRDAFKPYFEYTAGLLYYLGFDVLETVIAAGTDNLEVSFRPKLLENARELGRLVSTSPLTGPEFKKDEPSLTPLL | failed
MGSSHHHHHHENLYFQGSNIAFYVVSDVHGYIFPTDFTSRNQYQPMGLLLANHVIEQDRRQYDQSFKIDNGDFLQGSPFCNYLIAHSGSSQPLVDFYNRMAFDFGTLGNHEFNYGLPYLKDTLRRLNYPVLCANIYENDSTLTDNGVKYFQVGDQTVGVIGLTTQFIPHWEQPEHIQSLTFHSAFEILQQYLPEMKRHADIIVVCYHGGFEKDLESGTPTEVLTGENEGYAMLEAFSKDIDIFITGHQHRQIAERFKQTAVIQPGTRGTTVGRVVLSTDEYENLSVESCELLPVIDDSTFTIDEDDQHLRKQLEDWLDYEITTLPYDMTINHAFEARVAPHPFTNFMNYALLEKSDADVACTALFDSASGFKQVVTMRDVINNYPFPNTFKVLAVSGAKLKEAIERSAEYFDVKNDEVSVSADFLEPKPQHFNYDIYGGVSYTIHVGRPKGQRVSNMMIQGHAVDLKQTYTICVNNYRAVGGGQYDMYIDAPVVKDIQVEGAQLLIDFLSNNNLMRIPQVVDFKVEK | not failed
MGSSHHHHHHSSGLVPRGSHMLLREVTREERKNFYTNEWKVKDIPDFIVKTLELREFGFDHSGEGPSDRKNQYTDIRDLEDYIRATAPYAVYSSVALYEKPQEMEGWLGTELVFDIDAKDLPLRRCEHEPGTVCPICLNDAKEIVRDTVIILREELGFNDIHIIYSGRGYHIRVLDEWALKLDSKSRERILSFVSASEIEDVEEFRKLLLNKRGWFVLNHGYPRAFRLRFGYFILRIKLPHLINAGIRKSIAKSILKSKEEIYEEFVRKAILAAFPQGVGIESLAKLFALSTRFSKSYFDGRVTVDLKRILRLPSTLHSKVGLIAKYVGTNERDVMRFNPFKHAVPKFRKEEVKVEYKKFLESLGT | not failed
MGSSHHHHHHSSGLVPRGSTETSQQLQLRVQGKEKHQTLEVSLSRDSPLKTLMSHYEEAMGLSGRKLSFFFDGTKLSGRELPADLGMESGDLIEVWG | not failed
MGSSHHHHHHSSGRENLYFQGGAGTSAAMRQATSPKTILEYIINFFTCGGIRRRNETQYQELIETMAETLKSTMPDRGAPLPENIILDDMDGCRVEFNLPGENNEAGQVIVRVSKGDHSETREIPLASFEKICRALLFRCEFSLPQDSVILTAQGGMNLKGAVLTGANLTS | not failed
MGSSHHHHHHSSGRENLYFQGMAGGKSMNVESYEKILRDRQRELYRRLHKIEADFEEPRNPDDEDRASERSNDEVLDELGQVGQDELRAIDAALARIASGTFGTCVKCGKRISEDRLKAVPYTPFCQECAAAL | not failed
MGSSSRQGWRSVFKDVTQKWDVMTVEEQEKELSLLEEWTERVLEEWSDMHEACMTLRERQQQSSVLEKYPPYVSKGTALYDLEMFPEAAMQFDRELKMQPHMHHPLLHLYAIFANLYGGQRERCKEHCVYVLTTSVDRLVRYFTYMALGTLYMQEGEVEEALTSYEHASKLTFHPDVMYNLGMAYFLQHQYALAIPCFMEVIKDGEEDVDALYFLGCALCESGYVEEGCAKWLEAIQLCPPEKVLLTIGAKLEWYGFHQAAVHCFEQLLQSRQLRHLAKHGIAWNLALQDEREKAIHMLKELIAVPQIREDVRLSIEFLAHCWNDGNLRQLAASIERG | failed
MGSTTGSMLTAISDTHGTDNHRLTGRTLDAVREADHVLHAGDFMTEQVLDAIDAESDELTGVVGNNDRPAVRARLSDVATVSWEELTIVVVHGHEHTETALGMLARQENADIVVVGHSHKPVLTDFGGWTLVNPGSYADPRRYQPAHAELDVMAGDVRVRLRSPDGTPISTTIVERLEHHHHHH | failed
MGSVAARDYVGIATKYAEAAVADKGRKRHGRWIRLAAKRFLDDLKRARRRGTPFFFDEWHANDACDFIEKLPHVEGKWETPTIVMHPSHVFFVVQLFGFRRRDAIKVEGWGDDDTFHPRRFTSALFAVARKNAKSTLASAILLYCLCCEPEEGAQVISAATTFDQASIIFRASKRMVEKTPDLAEAFGLATWAKSISRFETGSSYKAVHAKASTQDGLNPSHTGLDEIHAHKTADLLNVLQSAAGARANPLWLFTTTEGYTNAGPWAEIRGFVFALLRGVLGTQADHFLALFYALDNEDKSAKITQDDEFDESKWIKANPLLDVNPHLKAAIRKEAVEAKQMPSKLAEFRIKRCNRPASTASGWVDLTKWAKCGGAVDLDWLAGYPCWGGLDLASTTDIAAFRLLWLVEGVWYTHGWRWVPSEAVKQRTERATVPYAGWVEAGYLLQTEGDVTDYSVIERDILAAVQRFDPQQIAYDAWNAADLVNRLVAASVPMVQFVQGTKSYHPAMQALELAYVGGKLVHGGDPVLAWCASNLVARRDVNLSMAPDRKRSADKIDDMAALLMAMGLAVASDDAEDLSDFFNNAVIGLEHHHHHH | not failed
MGSVVHAEITEIKPFELRVNFGNSFRGRIHITEVLVNDASTSDEPFAKFRVGQSISARVVAKPCHTDIKKTQLWELSVKP | not failed
MGTHIKNQYISPPNTVYDCSIVKLPKIENRSGNITPIHSWVNIPFQIKRIFYSYDIPGGESRGAHAHKKCHQFLIAASGSFEVVLDDGISKRTVLLNRPFYGLHIPPGIWASEQGFSSGSVCLVLASHVYEEDDYLRDYQGFLNYKSQGIFEMFINVNGGGVSPKIFYLPFLFTKSKEEVA | failed
MGTIESYLTNSYNYIIFNFKKLCIGGLMSAIVGAMSGVTTAFIDLFMERANYDIMHIIMSFLIYFGIIFIIGLIVSAIIGGYNVRIMKTTVEGLNVAPDWNNITDLLYRGILYIVGLVLLNIIFYFIPAILFVFGIFSLYISKIIGAFLIIISILIFIISVISLWLYSKLAEVNYSVKGFYGFFEFKEIFKMIGIRYIILVIIIAIINFIISLIVVLPLNIIDIFISYSALANSILTIIYISIKGISYALSTFVDFYLGVFSIRAVALYYKDRKGIT | failed
MGTIGKKAAKGASVKFSESSTQAVIKATYLQVFGRDVYEGQRLKVQEIKLENGEISVRDFVRALAKSDLFRKLYWTPFYVCKAIEYIHRRLLGRPTYGRQENNKYFDIASKKGLYAVVDAILDSLEYTETFGEDTVPYERYLTPAGLEHHHHHH | not failed
MGTIILTWNIQWGRGADGRVDLSRMLAEARAMGSFDVLCLQEVTSGFGHLPGQPGEDQWQELAGALGQAFTLIDGIALERHEGAQIRRFGNAIATRLPVLHVARHALPCPADAGPTMPRMAIEAIVQAPFGPLRVVSTHLEYYSETQRIAQIDALRALHVEGCMRAAHPPTLGPEPTDGPFRPLAQTRATVICGDFNCKPDSKPKRLATVPFSHEAAALYDAWETAHGPTPQPPTFGVHDRTGWTEPAYACDFMLVSEPLKTRVTRVEVNSTTQASDHQPTLLELRDAE | failed
MGTIKIVTDSSITIEPELIKALDITVVPLSVMIDSKLYSDNDLKEEGHFLSLMKASKSLPKTSQPPVGLFAETYENLVKKGVTDIVAIHLSPALSGTIEASRQGAEIAEAPVTVLDSGFTDQAMKFQVVEAAKMAKAGASLNEILAAVQAIKSKTELYIGVSTLENLVKGGRIGRVTGVLSSLLNVKVVMALKNDELKTLVKGRGNKTFTKWLDSYLAKNSHRPIAEIAISYAGEASLALTLKERIAAYYNHSISVLETGSIIQTHTGEGAFAVMVRYE | not failed
MGTPAERWERARMFFDAKDYAAAARVLDGLVAQVPEQTGPRLLLARSYYHSAQLRRAEAELRVVVERDPVEHYARLMLGRTLERQGRQEEADAQLRIASALAGLEHHHHHH | failed
